This experiment deals with AlexaFluor594-tagged α-SYN pre-formed fibrils (PFFs) (human) (UniProt P37840). Put plainly: two-color coincidence detection.

For the substance “[…]1 (from UniProt Q9H0R8 1-117) (natural protein)”, the relative presence of GFP species in the aggregates amounted to 0.14.

The values above are taken from publication doi:10.1101/2021.01.29.428744.
